Key:
[1] = molecular target: poly-specificity reagent (PSR); experiment: flow cytometry PSR assay on protein A beads; same quadrant without PSR: 0.046
[2] = molecular target: poly-specificity reagent (PSR); experiment: flow cytometry PSR assay on protein A beads; same quadrant without PSR: 9.17E-3
[3] = molecular target: poly-specificity reagent (PSR); experiment: flow cytometry PSR assay on protein A beads; same quadrant without PSR: 0
[4] = molecular target: poly-specificity reagent (PSR); experiment: flow cytometry PSR assay on protein A beads; same quadrant without PSR: 0.025

Substance | Q2 (Expression-FITC high, Binding-PE high), + PSR [1] | Q3 (Expression-FITC low, Binding-PE high), + PSR [2] | Q3 (Expression-FITC low, Binding-PE high), + PSR [3] | Q2 (Expression-FITC high, Binding-PE high), + PSR [4]
Rituximab (antibody) | 69.8 | 0.82 | – | –
Trastuzumab (antibody) | – | – | 0.049 | 0.37
